Results taken from PMC6954390, “Negative cooperativity between Gemin2 and RNA provides insights into RNA selection and the SMN complex's release in snRNP assembly”.
Residue numbers refer to the chain shown, from its start.

Columns and labels:
[1] = target: T1, SmD1s (Sm fold);SmD2;SmF;SmE;SmG;SmD3 (Sm fold);SmB (Sm fold) (human;human;human;human;human;human;huma …, UniProt P62314;P62316;P62306;P62304;P62308;P62318;P14678 …, del83-119||||||); experiment: GFC/SDS-PAGE; 7SΔN + SmD3/B input; complete core, Gemin2ΔN39/SMNGe2BD released; EMSA: 20 mM Tris-HCl pH 8.0, 250 mM NaCl, 2 mM MgCl2, 1 mM EDTA, 1 mM DTT, 37 C 40 min, RNA 50 pM and complex 2.5-10 pM as printed; GFC assembly assay conditions not in the material; settings: protein: recombinant;recombinant;recombinant;recombinant;recombinant;recombinant;recombinant; copies: 1;1;1;1;1;1;1; stem-loops flank the Sm site
[2] = target: T1, SmD1s (Sm fold);SmD2;SmF;SmE;SmG;SmD3 …; experiment: GFC/SDS-PAGE; 7SΔN + SmD3/B input; core formation to completion; EMSA: 20 mM Tris-HCl pH 8.0, 250 mM NaCl, 2 mM MgCl2, 1 mM EDTA, 1 mM DTT, 37 C 40 min, RNA 50 pM and complex 2.5-10 pM as printed; GFC assembly assay conditions not in the material; settings: protein: recombinant;recombinant;recombinant;recombinant;recombinant;recombinant;recombinant; copies: 1;1;1;1;1;1;1; stem-loops; 3 nt spacer 5' of Sm site
SmD1s (Sm …) [3] = target: T2, SmD1s (Sm fold);SmD2;SmF;SmE;SmG;Gemin2ΔN39;SMNGe2BD (human;human;human;human;human;human;huma …, UniProt P62314;P62316;P62306;P62304;P62308;O14893;Q16637 …, del83-119|||||del1-39|); experiment: GFC/SDS-PAGE; 7SΔN; EMSA: 20 mM Tris-HCl pH 8.0, 250 mM NaCl, 2 mM MgCl2, 1 mM EDTA, 1 mM DTT, 37 C 40 min, RNA 50 pM and complex 2.5-10 pM as printed; GFC assembly assay conditions not in the material; settings: protein: recombinant;recombinant;recombinant;recombinant;recombinant;recombinant;recombinant, copies: 1;1;1;1;1;1;1
SmD1;SmD2;SmF;SmE;SmG [4] = target: T3, SmD1;SmD2;SmF;SmE;SmG (human;human;human;human;human, UniProt P62314;P62316;P62306;P62304;P62308 1-119;1-118;1-86;1-92;1-76, ||||); experiment: GFC/SDS-PAGE; 5Sm without Gemin2; EMSA: 20 mM Tris-HCl pH 8.0, 250 mM NaCl, 2 mM MgCl2, 1 mM EDTA, 1 mM DTT, 37 C 40 min, RNA 50 pM and complex 2.5-10 pM as printed; GFC assembly assay conditions not in the material; settings: protein: recombinant;recombinant;recombinant;recombinant;recombinant; copies: 1;1;1;1;1
SmD1;SmD2;SmF;SmE;SmG [5] = target: T3, SmD1;SmD2;SmF;SmE;SmG; experiment: GFC; 5Sm without Gemin2; EMSA: 20 mM Tris-HCl pH 8.0, 250 mM NaCl, 2 mM MgCl2, 1 mM EDTA, 1 mM DTT, 37 C 40 min, RNA 50 pM and complex 2.5-10 pM as printed; GFC assembly assay conditions not in the material; settings: protein: recombinant;recombinant;recombinant;recombinant;recombinant, copies: 1;1;1;1;1
SmD1s (Sm …) [6] = target: T2, SmD1s (Sm …); experiment: GFC; 7SΔN; EMSA: 20 mM Tris-HCl pH 8.0, 250 mM NaCl, 2 mM MgCl2, 1 mM EDTA, 1 mM DTT, 37 C 40 min, RNA 50 pM and complex 2.5-10 pM as printed; GFC assembly assay conditions not in the material; settings: protein: recombinant;recombinant;recombinant;recombinant;recombinant;recombinant;recombinant; copies: 1;1;1;1;1;1;1; single-stranded
SmD1s (Sm …) [7] = target: T2, SmD1s (Sm …); experiment: EMSA; 7SΔN; Sm subcore formed; EMSA: 20 mM Tris-HCl pH 8.0, 250 mM NaCl, 2 mM MgCl2, 1 mM EDTA, 1 mM DTT, 37 C 40 min, RNA 50 pM and complex 2.5-10 pM as printed; GFC assembly assay conditions not in the material; settings: protein: recombinant;recombinant;recombinant;recombinant;recombinant;recombinant;recombinant; copies: 1;1;1;1;1;1;1; 5' and 3' stem-loops flank the Sm site
SmD1s (Sm …) [8] = target: T2, SmD1s (Sm …); experiment: GFC/SDS-PAGE; 7SΔN; Gemin2 starts to be released; EMSA: 20 mM Tris-HCl pH 8.0, 250 mM NaCl, 2 mM MgCl2, 1 mM EDTA, 1 mM DTT, 37 C 40 min, RNA 50 pM and complex 2.5-10 pM as printed; GFC assembly assay conditions not in the material; settings: protein: recombinant;recombinant;recombinant;recombinant;recombinant;recombinant;recombinant; copies: 1;1;1;1;1;1;1; 3' stem-loop

B1: flU4 (structured_RNA)
RNA: GGGCAGCUUUGCGCAGUGGCAGUAUCGUAGCCAAUGAGGUCUAUCCGAGGCGCGAUUAUUGCUAAUUGAAAACUUUUCCCAAUACCCCGCCGUGACGACUUGCAAUAUAGUCGGCACUGGCAAUUUUUGACAGUCUCUACGGAGACUG
binding result [1]: binds

B2: flU4-spacer (structured_RNA)
RNA: B1 RNA with G119C, G120C, C121G
binding result [2]: binds

GGGAAUUGAAAACUUUUCCCAAUACCCCAAUUUUUGA (ssRNA) [3'Sm]
binding result (SmD1s (Sm …) [3]): no binding | binding result (SmD1;SmD2;SmF;SmE;SmG [4]): binds

B3: U4-3'Δ (structured_RNA)
RNA: GGGAAUUGAAAACUUUUCCCAAUACCCCGCCGUGACGACUUGCAAUAUAGUCGGCACUGGCAAUUUUUGAC
binding result (SmD1s (Sm …) [3]; 5' stem-loop): no binding

GGCAAUUUUUGACAGUCUCUACGGAGACUG (structured_RNA) [U4-5'Δ]
binding result (SmD1;SmD2;SmF;SmE;SmG [5]; 3' stem-loop): binds

GGCAAUUUUUGACAGUCUCUACGCUCUGAC (ssRNA) [U4-5'Δ-3'ss]
binding result (SmD1s (Sm …) [6]): binds

B4: U4 (structured_RNA)
RNA: GGGAAUUGAAAACUUUUCCCAAUACCCCGCCGUGACGACUUGCAAUAUAGUCGGCACUGGCAAUUUUUGACAGUCUCUACGGAGACUG
binding signal (SmD1s (Sm …) [7]): ~2 fold vs 7S

B5: U4ΔSm (structured_RNA)
RNA: B4 RNA with U64C, U65C, U66C, U67C, U68C
binding result (SmD1s (Sm …) [3]; 5' and 3' stem-loops): no binding

AAUUUUUGA (ssRNA) [9nt Sm site]
binding result (SmD1;SmD2;SmF;SmE;SmG [5]; single-stranded): binds

B6: U4-5'ss (structured_RNA)
RNA: GGGAAUUGAAAACUUUUCCCAAUACCCCAAUUUUUGACAGUCUCUACGGAGACUG
binding result (SmD1;SmD2;SmF;SmE;SmG [5]; 3' stem-loop): binds | binding result (SmD1s (Sm …) [8]): binds
